Consider two molecules from article PMC8894971, “ENB1 encodes a cellulose synthase 5 that directs synthesis of cell wall ingrowths in maize basal endosperm transfer cells”.

The target of data set [1] is T1, MRP1 (His-TF-MRP1) (Zea mays, UniProt K7V5I7 1-241).
T1 sequence: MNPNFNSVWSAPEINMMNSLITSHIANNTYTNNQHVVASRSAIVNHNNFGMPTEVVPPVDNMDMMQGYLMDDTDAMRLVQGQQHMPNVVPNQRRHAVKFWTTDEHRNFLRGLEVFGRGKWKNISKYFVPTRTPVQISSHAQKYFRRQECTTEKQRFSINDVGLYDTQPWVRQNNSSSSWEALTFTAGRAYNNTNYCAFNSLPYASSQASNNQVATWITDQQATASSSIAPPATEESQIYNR
In words: EMSA; LightShift EMSA kit standard protocol, ~200 ng protein, 5 ng biotin probe, 6% native polyacrylamide gel; buffer, salt, pH and temperature not stated. Particulars: protein: recombinant; tags: N-terminal His-TF (trigger factor, pCold-TF); blunt (duplex implied). Background: A gel shift assay detects complexes by their altered migration in electrophoresis.

The target in data set [2] is T1, MRP1 (His-TF-MRP1). As to the kind of experiment: EMSA; labeled Mu probe; no shifted band; LightShift EMSA kit standard protocol, ~200 ng protein, 5 ng biotin probe, 6% native polyacrylamide gel; buffer, salt, pH and temperature not stated. Particulars: protein: recombinant; tags: N-terminal His-TF (trigger factor, pCold-TF); blunt (duplex implied).

B1: ENB1 promoter WT probe (dsDNA)
DNA 1: CTACTTATTATCTACATATCTATGTGACTA
DNA 2: TAGTCACATAGATATGTAGATAATAAGTAG
For the molecule B1, the binding result with MRP1 (His-TF-MRP1) [1] is “binds”.

B2: ENB1 promoter Mu probe (dsDNA)
DNA 1: CTACTTATGAGCGACAGAGCGATGTGACTA
DNA 2: TAGTCACATCGCTCTGTCGCTCATAAGTAG
Take B2: in the data set with MRP1 (His-TF-MRP1) [2], the binding result is listed as “no binding”.
